# Measurements: patent US11130793B2, “GLP-1/GLP-2 dual agonists” (Zealand Pharma A/S, priority 2016, dated 2021)
# Square brackets hold non-standard residues; d marks the D form. Aib = CC(C)(N)C(=O)O
# T1: human GLP-2 receptor (hGLP2-R) (human, UniProt O95838)
# T1 sequence: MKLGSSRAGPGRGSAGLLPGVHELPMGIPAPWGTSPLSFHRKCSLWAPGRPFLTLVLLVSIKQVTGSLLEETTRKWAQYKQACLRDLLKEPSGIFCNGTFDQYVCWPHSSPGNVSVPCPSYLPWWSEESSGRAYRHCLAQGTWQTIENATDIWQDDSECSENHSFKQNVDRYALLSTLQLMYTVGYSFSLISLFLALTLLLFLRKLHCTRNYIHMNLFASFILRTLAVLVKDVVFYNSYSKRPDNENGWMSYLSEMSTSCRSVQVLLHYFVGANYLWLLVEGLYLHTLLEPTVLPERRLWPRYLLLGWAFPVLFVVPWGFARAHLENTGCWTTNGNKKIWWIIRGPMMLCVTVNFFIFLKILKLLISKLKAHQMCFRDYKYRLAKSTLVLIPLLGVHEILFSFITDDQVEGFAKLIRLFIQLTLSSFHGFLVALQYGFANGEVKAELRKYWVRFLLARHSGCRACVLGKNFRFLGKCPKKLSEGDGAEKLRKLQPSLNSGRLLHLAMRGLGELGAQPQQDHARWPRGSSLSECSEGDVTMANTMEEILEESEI
# Tests used:
# [1] = biological target: T1, human GLP-2 receptor (hGLP2-R); experiment: cell-based or functional assay
# [2] = biological target: human glucagon-like peptide 1 receptor (GLP-1R) (human, UniProt P43220); experiment: cell-based or functional assay
EC50 GLP-2 (nM); cAMP AlphaScreen [1],EC50 GLP-1 (nM); cAMP AlphaScreen [2],Binder
0.036 nM,0.0074 nM,H-H[Aib]EGTFTSELATILDEQAARDFIAWLIAHKITD-OH (SMILES CC[C@H](C)[C@H](NC(=O)[C@H](CC(C)C)NC(=O)[C@H](Cc1c[nH]c2ccccc12)NC(=O)[C@H](C)NC(=O)[C@@H](NC(=O)[C@H](Cc1ccccc1)NC(=O)[C@H](CC(=O)O)NC(=O)[C@H](CCCNC(=N)N)NC(=O)[C@H](C)NC(=O)[C@H](C)NC(=O)[C@H](CCC(N)=O)NC(=O)[C@H](CCC(=O)O)NC(=O)[C@H](CC(=O)O)NC(=O)[C@H](CC(C)C)NC(=O)[C@@H](NC(=O)[C@@H](NC(=O)[C@H](C)NC(=O)[C@H](CC(C)C)NC(=O)[C@H](CCC(=O)O)NC(=O)[C@H](CO)NC(=O)[C@@H](NC(=O)[C@H](Cc1ccccc1)NC(=O)[C@@H](NC(=O)CNC(=O)[C@H](CCC(=O)O)NC(=O)C(C)(C)NC(=O)[C@@H](N)Cc1c[nH]cn1)[C@@H](C)O)[C@@H](C)O)[C@@H](C)O)[C@@H](C)CC)[C@@H](C)CC)C(=O)N[C@@H](C)C(=O)N[C@@H](Cc1c[nH]cn1)C(=O)N[C@@H](CCCCN)C(=O)N[C@H](C(=O)N[C@H](C(=O)N[C@@H](CC(=O)O)C(=O)O)[C@@H](C)O)[C@@H](C)CC) [Compound 3]
,39 nM,HGDGSFSDEMNTILDNLAARDFINWLIQTKITD [Teduglutide ([Gly2]-hGLP-2 (1-33))]
0.044 nM,0.015 nM,H-H[Aib]EGSFTSELATILDEQAARDFIAWLIEHKITD-OH (SMILES CC[C@H](C)[C@H](NC(=O)[C@H](Cc1ccccc1)NC(=O)[C@H](CC(=O)O)NC(=O)[C@H](CCCNC(=N)N)NC(=O)[C@H](C)NC(=O)[C@H](C)NC(=O)[C@H](CCC(N)=O)NC(=O)[C@H](CCC(=O)O)NC(=O)[C@H](CC(=O)O)NC(=O)[C@H](CC(C)C)NC(=O)[C@@H](NC(=O)[C@@H](NC(=O)[C@H](C)NC(=O)[C@H](CC(C)C)NC(=O)[C@H](CCC(=O)O)NC(=O)[C@H](CO)NC(=O)[C@@H](NC(=O)[C@H](Cc1ccccc1)NC(=O)[C@H](CO)NC(=O)CNC(=O)[C@H](CCC(=O)O)NC(=O)C(C)(C)NC(=O)[C@@H](N)Cc1c[nH]cn1)[C@@H](C)O)[C@@H](C)O)[C@@H](C)CC)C(=O)N[C@@H](C)C(=O)N[C@@H](Cc1c[nH]c2ccccc12)C(=O)N[C@@H](CC(C)C)C(=O)N[C@H](C(=O)N[C@@H](CCC(=O)O)C(=O)N[C@@H](Cc1c[nH]cn1)C(=O)N[C@@H](CCCCN)C(=O)N[C@H](C(=O)N[C@H](C(=O)N[C@@H](CC(=O)O)C(=O)O)[C@@H](C)O)[C@@H](C)CC)[C@@H](C)CC) [Compound 4]
0.067 nM,0.0098 nM,H-H[Aib]EGTFTSELATILDEQAARDFIAWLIEHKITD-OH (SMILES CC[C@H](C)[C@H](NC(=O)[C@H](Cc1ccccc1)NC(=O)[C@H](CC(=O)O)NC(=O)[C@H](CCCNC(=N)N)NC(=O)[C@H](C)NC(=O)[C@H](C)NC(=O)[C@H](CCC(N)=O)NC(=O)[C@H](CCC(=O)O)NC(=O)[C@H](CC(=O)O)NC(=O)[C@H](CC(C)C)NC(=O)[C@@H](NC(=O)[C@@H](NC(=O)[C@H](C)NC(=O)[C@H](CC(C)C)NC(=O)[C@H](CCC(=O)O)NC(=O)[C@H](CO)NC(=O)[C@@H](NC(=O)[C@H](Cc1ccccc1)NC(=O)[C@@H](NC(=O)CNC(=O)[C@H](CCC(=O)O)NC(=O)C(C)(C)NC(=O)[C@@H](N)Cc1c[nH]cn1)[C@@H](C)O)[C@@H](C)O)[C@@H](C)O)[C@@H](C)CC)C(=O)N[C@@H](C)C(=O)N[C@@H](Cc1c[nH]c2ccccc12)C(=O)N[C@@H](CC(C)C)C(=O)N[C@H](C(=O)N[C@@H](CCC(=O)O)C(=O)N[C@@H](Cc1c[nH]cn1)C(=O)N[C@@H](CCCCN)C(=O)N[C@H](C(=O)N[C@H](C(=O)N[C@@H](CC(=O)O)C(=O)O)[C@@H](C)O)[C@@H](C)CC)[C@@H](C)CC) [Compound 5]
